Laboratory results: the supplement of paper PMC12042874
± gives the uncertainty stated by the source.

Assay: amyloid nucleation score (Sup35N fusion, yeast selection) (log enrichment); library NNK1; higher = more nucleation; inactive = no reads after selection
Procedure, shortened: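 In psi-negative yeast, Sup35N fusions carrying peptides of 20 random codons were induced with 100 μM copper sulfate for 24 hours. The cells then grew 7 days at 30°C on medium lacking adenine and uracil, and plasmid inserts from input and output were Illumina-sequenced, excluding sequences with under 100 input reads. Nucleation score is the DiMSum log enrichment of output over input reads, centred on the mode score of non-aggregating sequences.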

Row | Substance | amyloid nucleation score
1 | FWTAPKLARDMSVLVTVFFY | -1.4 ± 2.1
2 | YAFGHFCTDADSFCGRCVIL | 0.09 ± 0.76
3 | QFMMS | 0.052 ± 0.29
4 | TNFANHRLGDPIMYSFHKGV | -0.74 ± 0.37
5 | YGSKICSIAFCPLLHVQNHP | 6.567 ± 0.055
6 | RVTSNEKRNYRVSRICPHLT | -0.271 ± 1
7 | TGICLWLPAVVDAEES | -0.34 ± 0.35
8 | AGLMTGATSLQLMKFCSLGG | -0.729 ± 0.71
9 | RTGITNTKPTQWSYNQSLSS | -0.291 ± 0.52
10 | RFVNKGGT | -0.325 ± 0.69
11 | ADLRVFHYRYFGS | -0.223 ± 0.49
12 | ASMLFRSHQCCLIHSGADIN | 0.979 ± 0.29
13 | WDWGMCTCRWRDSAASWGKR | 0.432 ± 0.34
14 | CLQWPEYPDYSVGGAFRRTG | -0.311 ± 0.48
15 | GEYLRLSIWGLDKDNKGVQ | -0.073 ± 0.42
16 | LHLAAMM | -0.344 ± 1.1
17 | SFNWPGFPDCFGPFRAVFIS | -0.61 ± 1.1
18 | WYLGNAPRGATRA | -0.229 ± 1
19 | LEWGQPHPCSGFRKCWYSDV | 0.136 ± 0.58
20 | LMLGCGCECHVSSVSQKENM | 0.301 ± 1.1
21 | GYLIYSWVLVNWNSGLEINK | 2.62 ± 0.17
22 | YGINNLPI | -1.23 ± 0.71
23 | SYSINLPLLPRCN | 1.02 ± 0.57
24 | PRRMKT | 0.15 ± 0.33
25 | DIDFLLNLCESNLIFANM | -0.887 ± 0.87
26 | LCGTMWAG | 0.62 ± 0.51

Row | Substance | amyloid nucleation score
27 | VALDSSLHTSVYRIVSLSIG | -0.159 ± 0.52
28 | SALNSSRGKFICSRRCHGEE | 0.078 ± 0.23
29 | MWLFYRWVRSCTCP | -0.042 ± 0.32
30 | GMFNLLH | inactive
31 | ECGYFRLVSGERYTPVSSMR | -0.139 ± 0.37
32 | IECVS | -0.251 ± 0.68
33 | RCLMPYNYE | 0.952 ± 0.49
34 | GGTCVRQFMVLDTHSHADEC | 0.66 ± 0.56
35 | SRLAKLSFKQGNTTVCTKSS | -0.742 ± 0.62
36 | KCIWFMHDFCYMVLMR | -0.164 ± 0.72
37 | ELLEILFCSTIVERKNHRRP | 2.11 ± 0.11
38 | PSHLRYAAH | -0.038 ± 0.54
39 | RVDPLV | inactive
40 | KGVCMTRHD | -0.136 ± 1.6
41 | YDYMVALFSRS | -0.479 ± 0.66
42 | LALHSNNQLFF | 0.839 ± 0.81
43 | SARSWDLQMCFSCLYR | 7.28 ± 0.08
44 | ITSRVQFRETHTYIMYLEAW | 0.138 ± 0.43
45 | RNVGFLFSKRDQPWLKSPGD | -0.983 ± 2.4
46 | KPWYFVISW | -0.007 ± 1.2
47 | RKNSNDEASS | -0.339 ± 0.31
48 | NTMGSNWYMVVNSWFVRRCS | -1.01 ± 1.2
49 | FYPFLQR | 1.48 ± 0.63
50 | YLVILKITGGSDVPTDQMVW | -0.88 ± 0.32
51 | GVRVCSMPFAALLAFLLYFS | -1.09 ± 0.76
52 | YWVCE | 0.332 ± 0.9

Row | Substance | amyloid nucleation score
53 | NDIYLDGNVFKF | -0.477 ± 0.37
54 | QKCIVLVMLLGWVFGMPVIG | 0.129 ± 0.65
55 | YKEQGTPHLLYADYEARRDG | 0.791 ± 0.66
56 | SVFGWR | 1.32 ± 0.81
57 | NKVLCFK | inactive
58 | SLWAYNPV | 2.04 ± 0.38
59 | EFIIVRRDGLGAVYSVTNAF | 1.08 ± 0.7
60 | PSIHTFCTAL | 0.318 ± 0.33
61 | GRLCCRPVWYTISCKLWVNE | 1.04 ± 0.49
62 | FQRTGQKMWNNKKCSGRQHD | -0.648 ± 0.51
63 | GKYKI | -0.476 ± 0.63
64 | SCFVSSSAIPWVIHSKFDLG | 0.143 ± 0.55
65 | IDVWCESRVWRTWVYLGVRV | 0.903 ± 0.56
66 | IQFIDRPDHIARRLVWFRIG | 0.351 ± 0.27
67 | HVDFQVASSDEDLIHLFLYH | 0.258 ± 0.54
68 | TSSRCRYMFFLRHIFCKILK | inactive
69 | CFWVEMFFSETHMIKNYCIV | 1.27 ± 0.61
70 | NLDFLLFGIECIVKTCPFGY | 0.01 ± 0.44
71 | ANLACACCCYP | -0.146 ± 0.96
72 | FNMNHGMVSVRVEDRISRAC | 0.579 ± 0.28
73 | GYFIVALRFSSLVEVNATSC | 0.658 ± 0.77
74 | IFFYRYYNSHASSGERQNGR | 0.175 ± 0.56
75 | SSYSRCTFKAFKLGSVRVQV | 0.924 ± 0.7
76 | VLIINFLPVWWKTYLSMMIR | -0.256 ± 0.45
77 | YADWLEDCETVP | -0.309 ± 0.45
78 | VMDVFV | -0.292 ± 0.62

Row | Substance | amyloid nucleation score
79 | DMKNDYLHVGFWVLIGWHYL | 0.743 ± 0.37
80 | LFGEFRNEINAI | 0.031 ± 0.31
81 | GHTLRDVWASVEVRSNVDLD | 0.54 ± 0.82
82 | TFLITRMCYSTVQKKEVVFW | -0.189 ± 1.2
83 | FVLTYDLMLLQSGFNSRL | 0.756 ± 0.87
84 | EIFSNPSVYHESMK | -0.072 ± 1.2
85 | RSEVYFNWGLNASMEVSPLC | -0.02 ± 0.41
86 | GIVHAPCDFHTSSFWW | -0.147 ± 0.84
87 | FLMGTFDCCTVSVLFFAGK | 5.44 ± 0.055
88 | YHKRVNFSVRAGCCC | 1.29 ± 0.43
89 | SEMLSLKIGQGTVTPFNFWM | -0.09 ± 1.2
90 | VDRILFNVLAVSFDMELRSL | 0.224 ± 0.24
91 | FCCNWSCNCLRMG | 7.799 ± 0.051
92 | LIYAREDGEALWEAIRPTEK | -0.047 ± 0.48
93 | MVFRGFHKSQLGSFELAVGG | 0.428 ± 0.76
94 | RLFFSE | 0.117 ± 0.32
95 | FNMPDKQILKLESLWHGMVA | inactive
96 | LVAATP | 0.898 ± 0.66
97 | SIRTVSLLR | -0.859 ± 0.42
98 | KRGNPMTHAFLWPVMSYVFR | 0.295 ± 0.97
99 | TNELCMYCLGHLGY | 0.694 ± 0.84
100 | LCEHKSRLVEDAKGGET | -0.043 ± 0.47
101 | SYAIPMVAIFQVEGHLGHPG | -0.211 ± 1.2
102 | TFLGGAPVGKIFTLIWLGRG | 0.52 ± 0.93
103 | YRVVYRKNVDCTMYQFMSRR | 0.539 ± 0.31
104 | NLYFIHVSRMIWSNSV | 5.02 ± 0.075

Row | Substance | amyloid nucleation score
105 | LKLLFVTLKMLASMFFRGS | -1.28 ± 0.77
106 | RCIPLNNNFYASKQLLMSME | 0.259 ± 0.62
107 | DNRVLVPRRAFNDHIWCMYV | -0.23 ± 0.61
108 | LYHWYLRR | inactive
109 | RFFCDCFFGSRGE | 1.88 ± 0.36
110 | QVLDTGVVTDWSVIPFGRSY | 0.483 ± 0.65
111 | FGLYVYLPEGRHACVALRTV | -0.89 ± 0.88
112 | SLILG | 0.083 ± 0.3
113 | LWDLKIAGRLNLEGCRCGLW | 2.1 ± 0.13
114 | CQDGLDNLNCGAMVYFVVGD | 2.25 ± 0.22
115 | EYSVYDRYRPGNCCRTSRMD | 0.251 ± 0.31
116 | KNCAAFLHRHGFEVAQRGTC | -0.337 ± 0.78
117 | DLGNLFLGISVKCI | 0.961 ± 0.53
118 | YRGIEAFCAGTNWTSPKWSR | -0.169 ± 0.3
119 | VFVICCKRREAG | -0.295 ± 0.34
120 | SYSMQRRKCTPAFCFA | -0.36 ± 0.54
121 | CSGMMARPWIYLVGVYKISN | 2.26 ± 0.17
122 | LCSLTGLGYAMHVYVSLDVQ | 0.086 ± 0.5
123 | VSRYLWIIGRGWVN | 0.412 ± 0.39
124 | WNYRGIKYF | 0.129 ± 0.39
125 | MSSFRGDLEFAYDYS | -0.582 ± 1.2
126 | SNTDYCVSVPVLTVAFSVWA | -0.343 ± 0.51
127 | WDSLVLGKLYKLIFDQASPV | -1.31 ± 1.3
128 | LRGVLMFMQVRDRADRGRSW | 0.061 ± 0.47
129 | HLYMDSSILRLVEYTWCFKV | 0.085 ± 0.96
130 | VKEWGTNSVLGSYTVAQEMS | 0.096 ± 0.94

Row | Substance | amyloid nucleation score
131 | SILKIALTH | -1.71 ± 1.4
132 | GCRPG | -0.151 ± 0.59
133 | ASRAFSVVDYSGLLRGS | 0.498 ± 0.61
134 | ESRLLYSFRWVGERAVPSAN | 0.4 ± 0.58
135 | FVVSDTGKVKWGMAQ | 2.68 ± 0.14
136 | NPGIDYNERYWMG | -1.09 ± 1.1
137 | SVLLKWMSYTKH | 2.66 ± 0.15
138 | NSLMFRPWTLGDF | -0.434 ± 1.7
139 | LLNYGLRFCLVTARSELTYM | 0.979 ± 0.62
140 | GVTVKGASS | -0.734 ± 0.66
141 | QLGWYLFGM | 0.729 ± 0.4
142 | EWLLARMTISKRMMW | 0.587 ± 0.29
143 | CVHYLYEILQGILLNYSFLL | -0.737 ± 0.4
144 | FNLITSD | 0.074 ± 0.52
145 | DSRVLSDYLSSYLSLKYLLV | -0.031 ± 0.62
146 | RWYVFWQSMGCVRSGVWVKG | 0.195 ± 0.31
147 | SRYYFHFELFVWR | 0.291 ± 0.7
148 | VRYSL | -0.42 ± 0.35
149 | KESLLLTQCGYYMGSAKMVW | -1.03 ± 1.1
150 | DSYSLSN | -0.179 ± 0.27
151 | IQAKKDPTAESQRGCC | 0.197 ± 0.51
152 | VYRNAINSVIHFDGVVWGVG | inactive
153 | TSASYRADVWDDGNVLYRLW | inactive
154 | ETRYPPRVNSVYTVWPMYLL | 0.464 ± 0.43
155 | RYDPMLWINLYCFLITGG | 0.334 ± 0.39
156 | HLMMTLFFVPVLMCITFTDG | -0.032 ± 0.3

Row | Substance | amyloid nucleation score
157 | EITFPRAMWANRTTTMDRIM | -0.036 ± 0.4
158 | IKRKG | 0.326 ± 0.46
159 | FRSFGVR | 0.924 ± 0.97
160 | RLSRLLTLISVACSTFLCVV | -1.84 ± 2.1
161 | VPVVRYYFTQFMDKYADDMF | 1.36 ± 0.58
162 | SLNVVLFCRPTGVCSHGIGW | 1.91 ± 0.26
163 | SYNGCRRFNRCDRVCRNSNT | 2.35 ± 0.095
164 | SWGQTLTMNNP | -0.273 ± 0.38
165 | GCLKTVGCA | -0.22 ± 0.64
166 | RSVCIVF | 0.105 ± 0.43
167 | REFGLLAWVELLFWATFR | -0.676 ± 0.94
168 | NIVFL | 0.021 ± 0.55
169 | FNRNNMKYQYFLKRIYMNW | -0.338 ± 1.4
170 | EVYKHHYLA | 0.044 ± 0.47
171 | MRRPVKCYGVVTL | -0.299 ± 1.1
172 | LSGWHSNLAGRPFPNEMDDG | 0.284 ± 0.3
173 | GYMCIVLIRG | 1.12 ± 0.71
174 | FRVNCVAWDASGTYTYGR | 0.525 ± 0.4
175 | DGSVGFLMLEVCLWHSFLAC | inactive
176 | HPSTRCAVANDNIWPLSGPR | 0.628 ± 0.75
